B1: F1*; the commonest letter at each place (parent)
chain: GAGACCGCAACTGAAAAGTTGTTATCACTTGTCGTAAGACACTTTGGATGGGTTGAAGTTCTGCACGTAGAAGCAAAAGGC

Variants of: B1
Test: fraction ligated after 30 min (ligated reads / total reads); higher = more ligase activity
Details: with F1*sub RNA substrate (template-directed ligation), 42 °C
Procedure, shortened: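 Oligo-pool templates of ligase ribozyme variants were PCR-amplified, T7-transcribed and gel-purified. Ligated and unligated bands were gel-separated, reverse transcribed with barcoded primers, and MiSeq-sequenced; core bases were filtered at quality ≥20. Fraction ligated per variant was ligated reads over total reads.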
With T35C A39C the fraction ligated was 0.824.
Variant T25A G55A has a fraction ligated of 0.263.
Work on T29A G34A yielded a fraction ligated of 0.852.
For T23G T45G, the fraction ligated was 0.523.
G47T T49A was tested, and the fraction ligated was 0.0948.
G31T T35C gave a fraction ligated of 0.782.
With C26A G31C the fraction ligated was 0.226.
C26A G31A showed a fraction ligated of 0.261.
Work on C28G A39G yielded a fraction ligated of 0.772.
G31C C40G gave a fraction ligated of 0.796.
For T25G T29C, the fraction ligated was 0.385.
In the case of C28G T44A, the fraction ligated is reported as 0.791.
Work on T23A T43C yielded a fraction ligated of 0.783.
With A24C A36T the fraction ligated was 0.767.
With T23A C28G the fraction ligated was 0.804.
C28T G47C was tested, and the fraction ligated was 0.252.
A27T C28G was tested, and the fraction ligated was 0.802.
C40A C42G showed a fraction ligated of 0.803.
In the case of C42T G46C, the fraction ligated is reported as 0.813.
With A39C G50A the fraction ligated was 0.292.
In the case of G38A G50T, the fraction ligated is reported as 0.72.
With C33T T49C the fraction ligated was 0.697.
In the case of T23C G47T, the fraction ligated is reported as 0.0952.
T25A T43C showed a fraction ligated of 0.286.
Work on G31C T45A yielded a fraction ligated of 0.492.
Variant T32A has a fraction ligated of 0.842.
Work on T45G G55T yielded a fraction ligated of 0.0383.
Variant G31A A37C has a fraction ligated of 0.813.
In the case of C26A T29G, the fraction ligated is reported as 0.784.
With C42G A48T the fraction ligated was 0.792.
Work on T32A G46T yielded a fraction ligated of 0.787.
For G46A A57G, the fraction ligated was 0.799.
With T30A G34A the fraction ligated was 0.833.
C33G T49G was tested, and the fraction ligated was 0.706.
Work on T30C yielded a fraction ligated of 0.807.
For A41T G46C, the fraction ligated was 0.792.
In the case of C28G G31A, the fraction ligated is reported as 0.799.
A37T A48G was tested, and the fraction ligated was 0.804.
T30G A41C was tested, and the fraction ligated was 0.834.
Work on T30G T32C yielded a fraction ligated of 0.784.
For A37T A39G, the fraction ligated was 0.837.
In the case of T29A A48C, the fraction ligated is reported as 0.761.
G31A G38C was tested, and the fraction ligated was 0.798.
With A48G A56G the fraction ligated was 0.399.
T30C G31C gave a fraction ligated of 0.789.
Work on C40G A41T yielded a fraction ligated of 0.768.
In the case of C26G T32G, the fraction ligated is reported as 0.125.
For T25C T43C, the fraction ligated was 0.731.
In the case of A36T A37T, the fraction ligated is reported as 0.851.
T25C G50A was tested, and the fraction ligated was 0.326.
In the case of G31A A57C, the fraction ligated is reported as 0.819.
T43C G47A showed a fraction ligated of 0.767.
C40T A56T was tested, and the fraction ligated was 0.799.
With C40T A56G the fraction ligated was 0.801.
With A27T T32C the fraction ligated was 0.755.
Work on C42T G47T yielded a fraction ligated of 0.408.
A24G A48T gave a fraction ligated of 0.0442.
A37G A41T gave a fraction ligated of 0.859.
For C42T A57C, the fraction ligated was 0.812.
G34A A57G was tested, and the fraction ligated was 0.835.
T23C T49C was tested, and the fraction ligated was 0.715.
T23C A27C gave a fraction ligated of 0.775.
For T32G A41G, the fraction ligated was 0.754.
T30C T35G gave a fraction ligated of 0.795.
With T45A G55T the fraction ligated was 0.144.
In the case of T29C A57T, the fraction ligated is reported as 0.774.
With G34A A56T the fraction ligated was 0.819.
G34C G38A gave a fraction ligated of 0.813.
T30C A41T was tested, and the fraction ligated was 0.805.
G38C G55A showed a fraction ligated of 0.826.
In the case of T30A T35G, the fraction ligated is reported as 0.827.
For G50C G55T, the fraction ligated was 0.0259.
Work on T29A T32A yielded a fraction ligated of 0.869.
C26T A48C gave a fraction ligated of 0.418.
Work on C26T G55C yielded a fraction ligated of 0.3.
A24G A39G showed a fraction ligated of 0.827.
Work on C40A T49A yielded a fraction ligated of 0.517.
With T25C T29C the fraction ligated was 0.781.
Variant A24C A27G has a fraction ligated of 0.692.
With A41C T45A the fraction ligated was 0.55.
For G50A G55T, the fraction ligated was 0.0307.
In the case of T45C G55C, the fraction ligated is reported as 0.0438.
A24G T32A showed a fraction ligated of 0.591.
Work on G50T yielded a fraction ligated of 0.743.
For T30C G47C, the fraction ligated was 0.0928.
A27C C42A was tested, and the fraction ligated was 0.818.
T25G C42T was tested, and the fraction ligated was 0.797.
A39C T44C gave a fraction ligated of 0.797.
With A39G T44G the fraction ligated was 0.836.
For A27C T32C, the fraction ligated was 0.754.
A27C T32G showed a fraction ligated of 0.78.
C26T T30C gave a fraction ligated of 0.839.
For G55A A56C A57G, the fraction ligated was 0.0754.
For A24T C26T, the fraction ligated was 0.124.
Variant C26G T45A has a fraction ligated of 0.0653.
For G47C A57T, the fraction ligated was 0.0788.
Work on T35G T45C yielded a fraction ligated of 0.747.
In the case of T29G G31C, the fraction ligated is reported as 0.804.
With C26G A37T the fraction ligated was 0.707.
With G46A G50T the fraction ligated was 0.232.
Work on C28A T35A yielded a fraction ligated of 0.792.
A24G G50C showed a fraction ligated of 0.257.
With T35C G46T the fraction ligated was 0.778.
For A37G G47C, the fraction ligated was 0.269.
Work on A24C C26T yielded a fraction ligated of 0.0218.
G47T A48C was tested, and the fraction ligated was 0.0847.
T25C C40T gave a fraction ligated of 0.819.
A41G G46A was tested, and the fraction ligated was 0.791.
Work on T30A T45A yielded a fraction ligated of 0.604.
For T32G C42A, the fraction ligated was 0.845.
With C40T A41T the fraction ligated was 0.822.
T35A A39T was tested, and the fraction ligated was 0.838.
Work on T23C C28T yielded a fraction ligated of 0.777.
T25C G34A gave a fraction ligated of 0.799.
Variant T23C C26G has a fraction ligated of 0.136.
A27G A56T gave a fraction ligated of 0.769.
For A24T A48G, the fraction ligated was 0.214.
With C26G G31C the fraction ligated was 0.176.
For T29C T30C, the fraction ligated was 0.782.
T44A G46A gave a fraction ligated of 0.816.
Variant C26G T30A has a fraction ligated of 0.8.
Variant T25G C33G has a fraction ligated of 0.535.
For T25G C33T, the fraction ligated was 0.704.
A27G C28A showed a fraction ligated of 0.805.
A39C G46A showed a fraction ligated of 0.802.
T25A A56T was tested, and the fraction ligated was 0.0445.
With T35G A41G the fraction ligated was 0.816.
For T25G A48G, the fraction ligated was 0.291.
C33T G46T gave a fraction ligated of 0.791.
Work on G31A T35C yielded a fraction ligated of 0.813.
G31T A48T gave a fraction ligated of 0.0299.
C42A A56G showed a fraction ligated of 0.781.
In the case of A41T T49A, the fraction ligated is reported as 0.686.
With T30G G46C the fraction ligated was 0.776.
With C33T A36T the fraction ligated was 0.88.
G34C T45A gave a fraction ligated of 0.0783.
For A24T T32G, the fraction ligated was 0.372.
Work on C28G A56G yielded a fraction ligated of 0.722.
With C40A T44A the fraction ligated was 0.823.
C26T G47T gave a fraction ligated of 0.182.
Work on G31T C42T yielded a fraction ligated of 0.822.
C28A G47A gave a fraction ligated of 0.75.
For A41T A56G, the fraction ligated was 0.778.
T49C G50C showed a fraction ligated of 0.455.
Work on G46T A56C yielded a fraction ligated of 0.136.
T23A G38C showed a fraction ligated of 0.799.
With T32A A37T the fraction ligated was 0.82.
Variant A27C A36G has a fraction ligated of 0.821.
T29C A48C showed a fraction ligated of 0.745.
In the case of T30G G31C T32C C33G G38C A39G C40G A41C, the fraction ligated is reported as 0.797.
In the case of A36C G50T, the fraction ligated is reported as 0.746.
G31C A56G was tested, and the fraction ligated was 0.607.
A36G G50C gave a fraction ligated of 0.117.
Variant A24G G55C has a fraction ligated of 0.18.
For T30C A48T, the fraction ligated was 0.346.
Variant A37G A39G has a fraction ligated of 0.853.
T30C A56T showed a fraction ligated of 0.749.
Variant T25C G46C has a fraction ligated of 0.474.
With C33A A57T the fraction ligated was 0.849.
With G46C G55C the fraction ligated was 0.171.
For A37C A48C, the fraction ligated was 0.792.
T29G G50C gave a fraction ligated of 0.243.
For T29G G50A, the fraction ligated was 0.345.
Work on G34A A41T yielded a fraction ligated of 0.811.
Variant T25A T44C has a fraction ligated of 0.605.
With T44C G55C the fraction ligated was 0.754.
Variant C33T A57T has a fraction ligated of 0.842.
